This note sets out measurements from article PMC3398536.

One may read the stoichiometry N as the number of molecules, sites or subunits per partner or assembly.

Common to all, as to assay: native gel or EMSA
Assay [1] has as its target AcK-pro-PanD variant with acetyl-lysine at position 9 (S. enterica).
In assay [2] the target is AcK-pro-PanD variant with acetyl-lysine at position 14 (S. enterica).
Assay [3] concerns the target AcK-pro-PanD variant with acetyl-lysine at position 53 (S. enterica).
The target of assay [4] is AcK-pro-PanD variant with acetyl-lysine at position 104 (S. enterica).
Assay [5] deals with AcK-pro-PanD variant with acetyl-lysine at position 115 (S. enterica).
For assay [6], the target named is AcK-pro-PanD variant with acetyl-lysine at position 119 (S. enterica).
Assay [7] deals with pro-PanD (wild type), made from a plasmid in S. enterica ΔpanM (S. enterica).

Regarding “AcK-pro-PanD variant with acetyl-lysine at position 9 (natural protein)”, the stoichiometry N in assay [1] is 4.
In turn, “AcK-pro-PanD variant with acetyl-lysine at position 14 (natural protein)” showed a stoichiometry N in assay [2] of 4.
In assay [3], “AcK-pro-PanD variant with acetyl-lysine at position 53 (natural protein)” had a stoichiometry N of 4.
On to “AcK-pro-PanD variant with acetyl-lysine at position 104 (natural protein)”, for which the stoichiometry N in assay [4] was determined as 4.
As to “AcK-pro-PanD variant with acetyl-lysine at position 115 (natural protein)”, the stoichiometry N in assay [5] was 4.
“AcK-pro-PanD variant with acetyl-lysine at position 119 (natural protein)” gave a stoichiometry N in assay [6] of 4.
For “pro-PanD (wild type), made from a plasmid in S. enterica ΔpanM (natural protein)”, the stoichiometry N in assay [7] amounted to 4.
